The source of these data is PMC8238500.

Common to all, as to test: BRET (NanoLuc-miniG recruitment to plasma-membrane K-ras-YFP)
(In general: In BRET a luciferase serves as donor, and the signal depends on an acceptor being close.)

Experiment [1] has as its target NES-NanoLuc-MiniG subtype miniGq. The note with it: 500 ng receptor plasmid; parent: est. -0.030; read off a plot.
The target of experiment [2] is NES-NanoLuc-MiniG subtype miniGi. The note with it: 500 ng receptor plasmid; parent: est. -0.023; read off a plot.
Experiment [3] deals with NES-NanoLuc-MiniG subtype miniGs. Particulars: 500 ng receptor plasmid; parent: est. 0.092; read off a plot.
Experiment [4] addresses NES-NanoLuc-MiniG subtype miniG12. Particulars: 500 ng receptor plasmid; parent: est. 0.020; read off a plot.

With “G protein-coupled receptor 3 (GPR3), wild type (from UniProt P46089) DRY-mutant”, the response is -0.015 AU in experiment [1], -0.013 AU in experiment [2], 0.011 AU in experiment [3] and 0.027 AU in experiment [4].
